Target: T1, recombinant human Tie-2/Fc chimera (human, UniProt Q02763 23-748)
T1 construct: TIE-2 receptor tyrosine kinase, human, part fused to Fc in R&D Systems Cat. #313-TI-100; source: bought: R&D Systems
Assay: ELISA; solid-phase binding assay; TIE-2/Fc (4.0 ug/ml) or Fibulin-5 (20 ug/ml) coated on 96-well plates; 1:2 serial dilutions of soluble Ang-1 in 2% non-fat milk in TBS, 1 hr, room temperature; detected with Ang-1 antibody
Conditions: both partners purified

T1 sequence (Q02763 23-748, change not shown): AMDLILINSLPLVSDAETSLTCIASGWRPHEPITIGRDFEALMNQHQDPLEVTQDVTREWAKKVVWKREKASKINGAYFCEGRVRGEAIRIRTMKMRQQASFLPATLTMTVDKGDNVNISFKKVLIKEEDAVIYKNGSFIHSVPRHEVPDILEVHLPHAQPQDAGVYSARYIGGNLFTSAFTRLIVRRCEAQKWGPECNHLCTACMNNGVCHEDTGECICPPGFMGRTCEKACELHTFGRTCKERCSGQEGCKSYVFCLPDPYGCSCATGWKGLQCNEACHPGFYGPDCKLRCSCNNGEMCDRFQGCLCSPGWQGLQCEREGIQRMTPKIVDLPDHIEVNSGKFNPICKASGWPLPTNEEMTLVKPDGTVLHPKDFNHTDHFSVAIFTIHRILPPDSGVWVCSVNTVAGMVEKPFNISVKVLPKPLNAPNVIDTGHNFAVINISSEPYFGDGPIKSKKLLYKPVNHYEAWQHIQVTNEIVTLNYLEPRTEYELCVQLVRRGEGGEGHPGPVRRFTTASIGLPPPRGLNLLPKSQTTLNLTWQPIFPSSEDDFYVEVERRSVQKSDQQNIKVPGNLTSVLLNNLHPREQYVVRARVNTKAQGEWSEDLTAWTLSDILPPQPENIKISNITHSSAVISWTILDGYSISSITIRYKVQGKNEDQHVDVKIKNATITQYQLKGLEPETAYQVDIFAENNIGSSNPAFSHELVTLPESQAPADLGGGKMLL

- binding result: binds
B1: recombinant human Ang-1 (angiopoietin-1) (ligand, UniProt Q15389 16-498, looked up)
chain: HIGCSNQRRSPENSGRRYNRIQHGQCAYTFILPEHDGNCRESTTDQYNTNALQRDAPHVEPDFSSQKLQHLEHVMENYTQWLQKLENYIVENMKSEMAQIQQNAVQNHTATMLEIGTSLLSQTAEQTRKLTDVETQVLNQTSRLEIQLLENSLSTYKLEKQLLQQTNEILKIHEKNSLLEHKILEMEGKHKEELDTLKEEKENLQGLVTRQTYIIQELEKQLNRATTNNSVLQKQQLELMDTVHNLVNLCTKEGVLLKGGKREEEKPFRDCADVYQAGFNKSGIYTIYINNMPEPKKVFCNMDVNGGGWTVIQHREDGSLDFQRGWKEYKMGFGNPSGEYWLGNEFIFAITSQRQYMLRIELMDWEGNRAYSQYDRFHIGNEKQNYRLYLKGHTGTAGKQSSLILHGADFSTKDADNDNCMCKCALMLTGGWWFDACGPSNLNGMFYTAGQNHGKLNGIKWHYFKGPSYSLRSTTMMIRPLDF
notes: angiopoietin-1, human, recombinant, R&D Systems Cat. #923-AN/CF; The introduction calls angiopoietins oligomeric glycoproteins; source: bought: R&D Systems

From article PMC4909301, “Fibulin-5 Regulates Angiopoietin-1/Tie-2 Receptor Signaling in Endothelial Cells” (PLoS ONE, 2016)
